{"source": "paper doi:10.1101/2021.02.17.431740", "key": {"[1]": {"biological_target": "HA-tagged PEAK3 SH3(1) mutant (DKO MCF-10A cells) (UniProt Q6ZS72)", "experiment": "co-IP"}, "[2]": {"biological_target": "HA-tagged PEAK3 Y24 mutant (SH2 binding motif mutant; DKO MCF-10A cells) (UniProt Q6ZS72)", "experiment": "co-IP"}}}
{"substance": "PYK2 (MCF-10A cells) (from UniProt Q14289 1-1009) (natural protein)", "values": [{"measurement": "recruitment relative to WT PEAK3", "setting": "[1]", "result": 50, "unit": "%"}]}
{"substance": "CrkII (MCF-10A cells) (from UniProt P46108-1 1-304) (natural protein)", "values": [{"measurement": "association relative to WT PEAK3 (control)", "setting": "[2]", "result": "40 % of control"}]}
